T1: betaglycan on primary rat pituitary cells (rat) (UniProt P26342)
T1 sequence (looked up): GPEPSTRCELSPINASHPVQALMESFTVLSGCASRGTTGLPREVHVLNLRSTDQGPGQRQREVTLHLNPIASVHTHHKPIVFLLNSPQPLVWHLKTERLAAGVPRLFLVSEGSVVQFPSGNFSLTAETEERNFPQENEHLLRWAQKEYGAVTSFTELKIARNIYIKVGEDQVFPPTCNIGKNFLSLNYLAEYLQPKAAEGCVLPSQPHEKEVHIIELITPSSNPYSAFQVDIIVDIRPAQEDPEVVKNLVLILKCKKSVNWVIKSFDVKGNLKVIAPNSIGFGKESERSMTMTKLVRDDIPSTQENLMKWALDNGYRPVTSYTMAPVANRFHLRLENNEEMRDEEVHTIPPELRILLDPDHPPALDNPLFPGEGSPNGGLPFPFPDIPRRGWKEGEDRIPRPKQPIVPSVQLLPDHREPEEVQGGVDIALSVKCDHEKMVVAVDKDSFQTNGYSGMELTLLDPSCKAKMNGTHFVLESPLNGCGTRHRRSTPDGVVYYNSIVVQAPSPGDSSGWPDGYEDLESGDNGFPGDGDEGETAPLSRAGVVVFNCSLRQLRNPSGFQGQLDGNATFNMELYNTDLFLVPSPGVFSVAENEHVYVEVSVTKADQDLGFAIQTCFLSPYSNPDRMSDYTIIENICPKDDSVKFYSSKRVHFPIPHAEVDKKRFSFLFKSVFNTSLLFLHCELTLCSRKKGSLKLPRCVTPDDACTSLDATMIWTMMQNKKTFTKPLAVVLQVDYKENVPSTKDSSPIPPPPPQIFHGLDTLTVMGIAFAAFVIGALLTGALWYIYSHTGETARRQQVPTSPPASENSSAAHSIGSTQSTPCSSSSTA

T2: betaglycan on LβT2 mouse pituitary gonadotrope cells (mouse) (UniProt O88393)
T2 sequence (looked up): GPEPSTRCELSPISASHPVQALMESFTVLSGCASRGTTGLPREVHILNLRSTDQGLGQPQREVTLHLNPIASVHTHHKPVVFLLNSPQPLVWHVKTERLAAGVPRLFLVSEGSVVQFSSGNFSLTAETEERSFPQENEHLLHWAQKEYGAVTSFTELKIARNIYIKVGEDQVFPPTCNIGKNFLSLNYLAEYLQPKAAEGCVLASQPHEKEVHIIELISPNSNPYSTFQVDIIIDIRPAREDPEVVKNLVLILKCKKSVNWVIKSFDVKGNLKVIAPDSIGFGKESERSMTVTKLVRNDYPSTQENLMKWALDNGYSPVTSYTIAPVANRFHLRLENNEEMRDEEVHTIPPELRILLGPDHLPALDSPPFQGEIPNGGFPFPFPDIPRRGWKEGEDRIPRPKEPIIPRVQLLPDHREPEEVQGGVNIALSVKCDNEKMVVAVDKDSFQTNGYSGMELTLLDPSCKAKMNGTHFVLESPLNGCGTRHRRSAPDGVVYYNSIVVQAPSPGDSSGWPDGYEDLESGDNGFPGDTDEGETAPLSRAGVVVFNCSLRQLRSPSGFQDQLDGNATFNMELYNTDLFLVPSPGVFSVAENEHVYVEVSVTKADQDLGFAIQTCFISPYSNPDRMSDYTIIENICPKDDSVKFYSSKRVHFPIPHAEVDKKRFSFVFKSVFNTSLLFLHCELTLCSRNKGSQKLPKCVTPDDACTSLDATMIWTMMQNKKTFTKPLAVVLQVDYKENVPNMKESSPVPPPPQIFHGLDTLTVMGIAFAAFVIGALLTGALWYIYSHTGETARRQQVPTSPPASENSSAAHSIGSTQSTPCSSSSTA

T3: type I receptor (ALK4) (UniProt P36896)
T3 sequence (looked up): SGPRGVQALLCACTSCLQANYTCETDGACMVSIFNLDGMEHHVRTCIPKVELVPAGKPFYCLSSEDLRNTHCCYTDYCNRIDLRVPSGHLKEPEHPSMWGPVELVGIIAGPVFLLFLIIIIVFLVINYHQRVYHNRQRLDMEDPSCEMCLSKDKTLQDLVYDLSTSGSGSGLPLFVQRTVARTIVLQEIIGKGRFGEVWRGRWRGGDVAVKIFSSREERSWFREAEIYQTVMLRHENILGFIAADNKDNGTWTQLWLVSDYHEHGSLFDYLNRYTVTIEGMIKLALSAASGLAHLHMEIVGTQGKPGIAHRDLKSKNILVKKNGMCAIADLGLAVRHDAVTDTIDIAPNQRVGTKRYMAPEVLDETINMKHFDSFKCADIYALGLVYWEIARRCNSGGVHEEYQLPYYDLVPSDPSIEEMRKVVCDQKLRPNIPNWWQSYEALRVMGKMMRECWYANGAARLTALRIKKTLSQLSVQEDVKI

T4: HIS-tagged inhibin α-subunit prodomain (human) (UniProt P05111)
T4 sequence: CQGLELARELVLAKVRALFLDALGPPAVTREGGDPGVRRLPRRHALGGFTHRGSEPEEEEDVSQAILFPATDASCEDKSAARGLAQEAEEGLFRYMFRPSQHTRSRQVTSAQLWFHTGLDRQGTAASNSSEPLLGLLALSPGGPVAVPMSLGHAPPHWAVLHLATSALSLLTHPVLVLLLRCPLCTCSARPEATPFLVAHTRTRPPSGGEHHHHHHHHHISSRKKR


Columns and labels:
[1] = target: T1, betaglycan on primary rat pituitary cells (rat); assay: cell-based or functional assay
[2] = target: T2, betaglycan on LβT2 mouse pituitary gonadotrope cells (mouse); assay: cell-based or functional assay
type I receptor (ALK4) = target: T3, type I receptor (ALK4); assay: cell-based or functional assay
[3] = target: T4, HIS-tagged inhibin α-subunit prodomain (human); assay: IMAC (Ni-NTA) co-purification from HEK293T conditioned medium; Western blot and ELISA

| Binder | IC50, decrease in FSH release by primary rat pituitary cells [1] | IC50, FSH release by LβT2 pituitary gonadotrope cells [2] | potency in FSH release by LβT2 cells, against mature inhibin A [2] | activin response, activin-responsive luciferase reporter (A3-Luc) in HEK293 cells, against inhibin A-SCUT without M418A (type I receptor (ALK4)) | percent of mature inhibin A co-purified with the HIS-tagged prodomain [3] |
| --- | --- | --- | --- | --- | --- |
| HPLC-purified mature inhibin A (ligand) chain 1: STPLMSWPWSPSALRLLQRPPEEPAAHANCHRVALNISFQELGWERWIVYPPSFIFHYCHGGCGLHIPPNLSLPVPGAPPTPAQPYSLLPGAQPCCAALPGTMRPLHVRTTSDGGYSFKYETVPNLLTQHCACI chain 2: GLECDGKVNICCKKQFFVSFKDIGWNDWIIAPSGYHANYCEGECPSHIAGTSGSSLSFHSTVINHYRMRGHSPFANLKSCCVPTKLRPMSMLYYDDGQNIIKKDIQNMIVEECGCS | 0.065 nM | 1 nM |  |  |  |
| Pro-inhibin A (M418A) (ligand) chain 1: CQGLELARELVLAKVRALFLDALGPPAVTREGGDPGVRRLPRRHALGGFTHRGSEPEEEEDVSQAILFPATDASCEDKSAARGLAQEAEEGLFRYMFRPSQHTRSRQVTSAQLWFHTGLDRQGTAASNSSEPLLGLLALSPGGPVAVPMSLGHAPPHWAVLHLATSALSLLTHPVLVLLLRCPLCTCSARPEATPFLVAHTRTRPPSGGEHHHHHHHHHISSRKKRSVSSTPLMSWPWSPSALRLLQRPPEEPAAHANCHRVALNISFQELGWERWIVYPPSFIFHYCHGGCGLHIPPNLSLPVPGAPPTPAQPYSLLPGAQPCCAALPGTMRPLHVRTTSDGGYSFKYETVPNLLTQHCACI chain 2: DYKDDDDKSPTPGSEGHSAAPDCPSCALAALPKDVPNSQPEMVEAVKKHILNMLHLKKRPDVTQPVPKAALLNAIRKLHVGKVGENGYVEIEDDIGRRAEMNELMEQTSEIITFAESGTARKTLHFEISKEGSDLSVVERAEVWLFLKVPKANRTRTKVTIRLFQQQKHPQGSLDTGEEAEEVGLKGERSELLLSEKVVDARKSTWHVFPVSSSIQRLLDQGKSSLDVRIACEQCQESGASLVLLGKKKKKEEEGEGKKKGGGEGGAGADEEKEQSHRPFLMLQARQSEDHPHISSRKKRSVSSGLECDGKVNICCKKQFFVSFKDIGWNDWIIAPSGYHANYCEGECPSHIAGTSGSSLSFHSTVINHYRMRGHSPFANLKSCCVPTKLRPMSMLYYDDGQNIIKKDIQNAIVEECGCS | 0.075 nM | 0.045 nM | 22 fold |  |  |

The next lines start with the values.

| IC50, decrease in FSH release by primary rat pituitary cells [1] | IC50, FSH release by LβT2 pituitary gonadotrope cells [2] | potency in FSH release by LβT2 cells, against mature inhibin A [2] | activin response, activin-responsive luciferase reporter (A3-Luc) in HEK293 cells, against inhibin A-SCUT without M418A (type I receptor (ALK4)) | percent of mature inhibin A co-purified with the HIS-tagged prodomain [3] | Binder |
| --- | --- | --- | --- | --- | --- |
|  |  |  | 100 fold lower |  | activin A (M418A), residual in the inhibin A-SCUT (M418A) preparation (ligand) DYKDDDDKSPTPGSEGHSAAPDCPSCALAALPKDVPNSQPEMVEAVKKHILNMLHLKKRPDVTQPVPKAALLNAIRKLHVGKVGENGYVEIEDDIGRRAEMNELMEQTSEIITFAESGTARKTLHFEISKEGSDLSVVERAEVWLFLKVPKANRTRTKVTIRLFQQQKHPQGSLDTGEEAEEVGLKGERSELLLSEKVVDARKSTWHVFPVSSSIQRLLDQGKSSLDVRIACEQCQESGASLVLLGKKKKKEEEGEGKKKGGGEGGAGADEEKEQSHRPFLMLQARQSEDHPHISSRKKRSVSSGLECDGKVNICCKKQFFVSFKDIGWNDWIIAPSGYHANYCEGECPSHIAGTSGSSLSFHSTVINHYRMRGHSPFANLKSCCVPTKLRPMSMLYYDDGQNIIKKDIQNAIVEECGCS |
|  |  |  |  | > 90% | mature inhibin A (M418A) (ligand) chain 1: SVSSTPLMSWPWSPSALRLLQRPPEEPAAHANCHRVALNISFQELGWERWIVYPPSFIFHYCHGGCGLHIPPNLSLPVPGAPPTPAQPYSLLPGAQPCCAALPGTMRPLHVRTTSDGGYSFKYETVPNLLTQHCACI chain 2: SVSSGLECDGKVNICCKKQFFVSFKDIGWNDWIIAPSGYHANYCEGECPSHIAGTSGSSLSFHSTVINHYRMRGHSPFANLKSCCVPTKLRPMSMLYYDDGQNIIKKDIQNAIVEECGCS |
